Experiments:
Assay in all cases: cell-based or functional assay
[1] = target: T1, SARS-CoV-2 Spike, Alpha variant (SARS-CoV-2, UniProt P0DTC2 14-1273)
[2] = target: T2, SARS-CoV-2 Spike, Gamma variant (SARS-CoV-2, UniProt P0DTC2 14-1273)
[3] = target: T3, SARS-CoV-2 Spike, Beta variant (SARS-CoV-2, UniProt P0DTC2 14-1273)
[4] = target: T4, SARS-CoV-2 Spike, Delta variant (SARS-CoV-2, UniProt P0DTC2 14-1273)
[5] = target: SARS-CoV-2 Spike, Zeta variant (SARS-CoV-2, UniProt P0DTC2 14-1273)
[6] = target: SARS-CoV-2 Spike, Eta variant (SARS-CoV-2, UniProt P0DTC2 14-1273)
[7] = target: SARS-CoV-2 Spike, Iota variant (SARS-CoV-2, UniProt P0DTC2 14-1273)
[8] = target: T1, SARS-CoV-2 Spike, Alpha variant; remark: listed apart in the source
[9] = target: T2, SARS-CoV-2 Spike, Gamma variant; remark: listed apart in the source
[10] = target: T3, SARS-CoV-2 Spike, Beta variant; remark: listed apart in the source
[11] = target: SARS-CoV-2 Spike, Kappa variant (SARS-CoV-2, UniProt P0DTC2 14-1273)
[12] = target: SARS-CoV-2 Spike, Lambda variant (SARS-CoV-2, UniProt P0DTC2 14-1273)
[13] = target: SARS-CoV-2 Spike, Epsilon variant (SARS-CoV-2, UniProt P0DTC2 14-1273)
[14] = target: T4, SARS-CoV-2 Spike, Delta variant; remark: listed apart in the source

B1: MR22950 antibody (antibody, V domains shown)
VH: QLQLQESGPGLVKPSEPLSLTCAVSGGFIGTNWWTWIRQPPGKGLEWIGRISGSVGSTSYNPSLKSRVTISRDTSKNQFSLNLNSLTAADTAVYYCAREGRLDTLDWGQGVLVIVSS
VL: QSVLTQPPSASEAARKSVTISCSGSSSNIGSYSVSWYQQFPGTPPKLLIYFNDQRASGVSDRFSGSKSGTSASLAISGLQTEDEADYYCAGWDDSLNGVLFGGGTRLTVLG
- Neut50 (ng/mL), authentic live virus, plaques on Vero cells [1]: 4.7 ng/mL
- Neut50 (ng/mL), authentic live virus, plaques on Vero cells [2]: 12.7 ng/mL
- Neut50 (ng/mL), authentic live virus, plaques on Vero cells [3]: 6.9 ng/mL
- Neut50 (ng/mL), authentic live virus, plaques on Vero cells [4]: 20.3 ng/mL
- Neut50 [5]: 3.8 ng/mL
- Neut50 [6]: 16 ng/mL
- Neut50 [7]: 0.5 ng/mL
- Neut50 [8]: 7.3 ng/mL
- Neut50 [9]: 105 ng/mL
- Neut50 [10]: 33 ng/mL
- Neut50 [11]: 15 ng/mL
- Neut50 [12]: 19 ng/mL
- Neut50 [13]: 10.8 ng/mL
- Neut50 [14]: 7.8 ng/mL

— patent US20240327504A1 (MABLOC, published 2024)
